# Source: IntAct's records for PubMed 17719540
# B1: Type 3 secretion system translocon protein SctE (Shigella flexneri), P18011 (parent)
# chain: MHNVSTTTTGFPLAKILTSTELGDNTIQAANDAANKLFSLTIADLTANQNINTTNAHSTSNILIPELKAPKSLNASSQLTLLIGNLIQILGEKSLTALTNKITAWKSQQQARQQKNLEFSDKINTLLSETEGLTRDYEKQINKLKNADSKIKDLENKINQIQTRLSELDPESPEKKKLSREEIQLTIKKDAAVKDRTLIEQKTLSIHSKLTDKSMQLEKEIDSFSAFSNTASAEQLSTQQKSLTGLASVTQLMATFIQLVGKNNEESLKNDLALFQSLQESRKTEMERKSDEYAAEVRKAEELNRVMGCVGKILGALLTIVSVVAAAFSGGASLALAAVGLALMVTDAIVQAATGNSFMEQALNPIMKAVIEPLIKLLSDAFTKMLEGLGVDSKKAKMIGSILGAIAGALVLVAAVVLVATVGKQAAAKLAENIGKIIGKTLTDLIPKFLKNFSSQLDDLITNAVARLNKFLGAAGDEVISKQIISTHLNQAVLLGESVNSATQAGGSVASAVFQNSASTNLADLTLSKYQVEQLSKYISEAIEKFGQLQEVIADLLASMSNSQANRTDVAKAILQQTTA
# Variants of: B1
# Details: with ipgc_shifl ipgC
row,Variant,effect of a mutation on the interaction
1,MHNVSTTTTGFPLAKILTSTELGDNTIQAANDAANKLFSLTIADLTANQNINTTNAHSTSNILIPEAKAPKSLNASSQLTLLIGNLIQILGEKSLTALTNKITAWKSQQQARQQKNLEFSDKINTLLSETEGLTRDYEKQINKLKNADSKIKDLENKINQIQTRLSELDPESPEKKKLSREEIQLTIKKDAAVKDRTLIEQKTLSIHSKLTDKSMQLEKEIDSFSAFSNTASAEQLSTQQKSLTGLASVTQLMATFIQLVGKNNEESLKNDLALFQSLQESRKTEMERKSDEYAAEVRKAEELNRVMGCVGKILGALLTIVSVVAAAFSGGASLALAAVGLALMVTDAIVQAATGNSFMEQALNPIMKAVIEPLIKLLSDAFTKMLEGLGVDSKKAKMIGSILGAIAGALVLVAAVVLVATVGKQAAAKLAENIGKIIGKTLTDLIPKFLKNFSSQLDDLITNAVARLNKFLGAAGDEVISKQIISTHLNQAVLLGESVNSATQAGGSVASAVFQNSASTNLADLTLSKYQVEQLSKYISEAIEKFGQLQEVIADLLASMSNSQANRTDVAKAILQQTTA [L67A],decreasing interaction

# Variants of: B1
# Details: with md2l2_human MAD2L2, Q9UI95
# md2l2_human MAD2L2, Q9UI95, sequence (Q9UI95 whole entry): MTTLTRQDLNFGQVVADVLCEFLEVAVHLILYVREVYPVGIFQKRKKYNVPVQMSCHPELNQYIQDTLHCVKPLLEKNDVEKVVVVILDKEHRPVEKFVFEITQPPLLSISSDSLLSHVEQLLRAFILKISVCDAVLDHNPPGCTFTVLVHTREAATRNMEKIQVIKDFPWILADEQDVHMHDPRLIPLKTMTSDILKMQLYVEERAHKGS
row,Variant,effect of a mutation on the interaction
1,MHNVSTTTTGFPLAKILTSTELGDNTIQAANDAANKLFSLTIADLTANQNINTTNAHSTSAILIPELKAPKSLNASSQLTLLIGNLIQILGEKSLTALTNKITAWKSQQQARQQKNLEFSDKINTLLSETEGLTRDYEKQINKLKNADSKIKDLENKINQIQTRLSELDPESPEKKKLSREEIQLTIKKDAAVKDRTLIEQKTLSIHSKLTDKSMQLEKEIDSFSAFSNTASAEQLSTQQKSLTGLASVTQLMATFIQLVGKNNEESLKNDLALFQSLQESRKTEMERKSDEYAAEVRKAEELNRVMGCVGKILGALLTIVSVVAAAFSGGASLALAAVGLALMVTDAIVQAATGNSFMEQALNPIMKAVIEPLIKLLSDAFTKMLEGLGVDSKKAKMIGSILGAIAGALVLVAAVVLVATVGKQAAAKLAENIGKIIGKTLTDLIPKFLKNFSSQLDDLITNAVARLNKFLGAAGDEVISKQIISTHLNQAVLLGESVNSATQAGGSVASAVFQNSASTNLADLTLSKYQVEQLSKYISEAIEKFGQLQEVIADLLASMSNSQANRTDVAKAILQQTTA [N61A],decreasing interaction
